Source: patent publication US20230190875A1 (ACCELERON PHARMA, published 2023)

B1: ActRIIB homodimer Fc fusion (Fc fusion, UniProt Q13705 20-134, looked up)
chain: GRGEAETRECIYYNANWELERTNQSGLERCEGEQDKRLHCYASWRNSSGTIELVKKGCWLDDFNCYDRQECVATEENPQVYFCCCEGNFCNERFTHLPEAGGPEVTYEPPPTAPT
notes: Comparator; also called homodimeric ActRIIB Fc fusion; homomeric ActRIIB-Fc; not shown: linker and Fc domain of the homodimer are not described
B2: GDF3 (ligand, UniProt Q9NR23 251-364, looked up)
chain: AAIPVPKLSCKNLCHRHQLFINFRDLGWHKWIIAPKGFMANYCHGECPFSLTISLNSSNYAFMQALMHAVDPEIPQAVCIPTKLSPISMLYQDNNDNVILRHYEDMVVDECGCG
notes: also called VGR2
B3: BMP9 (ligand, UniProt Q9UK05 320-429, looked up)
chain: SAGAGSHCQKTSLRVNFEDIGWDSWIIAPKEYEAYECKGGCFFPLADDVTPTKHAIVQTLVHLKFPTKVGKACCVPTKLSPISVLYKDDMGVPTLKYHYEGMSVAECGCR
notes: also called GDF2
B4: GDF11 (ligand, UniProt O95390 299-407, looked up)
chain: NLGLDCDEHSSESRCCRYPLTVDFEAFGWDWIIAPKRYKANYCSGQCEYMFMQKYPHTHLVQQANPRGSAGPCCTPTKMSPINMLYFNDKQQIIYGKIPGMVVDRCGCS
notes: also called BMP11
B5: BMP10 (ligand, UniProt O95393 317-424, looked up)
chain: NAKGNYCKRTPLYIDFKEIGWDSWIIAPPGYEAYECRGVCNYPLAEHLTPTKHAIIQALVHLKNSQKASKACCVPTKLEPISILYLDKGVVTYKFKYEGMAVSECGCR

Columns and labels:
Test in all cases: SPR (Biacore); Fc fusion captured by anti-Fc antibody, ligand injected
activin A = molecular target: T1, activin A (UniProt P08476 311-426)
T1 sequence (looked up): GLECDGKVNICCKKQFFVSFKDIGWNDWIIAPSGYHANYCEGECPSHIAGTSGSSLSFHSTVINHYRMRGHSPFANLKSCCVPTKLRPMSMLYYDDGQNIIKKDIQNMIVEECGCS
Experimental: (§1) A Biacore™-based binding assay was used to compare ligand binding selectivity of the single-arm ActRIIB heterodimer Fc fusion described above with that of ActRIIB homodimer Fc fusion. Single-arm ActRIIB […] Fc fusion and ActRIIB homodimer Fc fusion were independently captured onto the system using an anti-Fc antibody. Ligands were injected and allowed to flow over the captured receptor protein.

activin B = molecular target: T2, activin B (UniProt P09529 293-407)
T2 sequence (looked up): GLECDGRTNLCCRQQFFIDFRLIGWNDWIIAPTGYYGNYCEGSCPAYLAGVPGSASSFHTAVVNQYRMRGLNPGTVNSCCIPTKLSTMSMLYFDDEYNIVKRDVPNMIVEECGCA
Experimental: as §1

BMP6 = molecular target: T3, BMP6 (UniProt P22004 382-513, limits assumed)
T3 sequence (looked up): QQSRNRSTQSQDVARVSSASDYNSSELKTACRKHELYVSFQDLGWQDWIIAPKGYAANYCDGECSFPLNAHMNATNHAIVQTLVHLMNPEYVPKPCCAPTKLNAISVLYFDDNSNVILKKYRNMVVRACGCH
Experimental: as §1

[1] = molecular target: B1
Experimental: as §1

[2] = molecular target: T4, ActRIIA homodimer Fc fusion (UniProt P27037 21-135)
T4 construct: Comparator; also called homodimeric ActRIIA Fc fusion; not shown: linker and Fc domain of the homodimer are not described
T4 sequence (P27037 21-135): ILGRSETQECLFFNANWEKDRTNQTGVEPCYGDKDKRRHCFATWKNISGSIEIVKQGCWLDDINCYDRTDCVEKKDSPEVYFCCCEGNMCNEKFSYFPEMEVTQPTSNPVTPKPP
Experimental: A Biacore™-based binding assay was used to compare ligand binding selectivity of the single-arm ActRIIA heterodimer Fc fusions described above with that of an ActRIIA homodimer Fc fusion. The single-arm ActRIIA heterodimer Fc fusions and ActRIIA homodimer Fc fusions were independently captured onto the system using an anti-Fc antibody. Ligands were injected and allowed to flow over the captured receptor protein.

| Binder | Kd [1] | koff [1] | kon [1] | Kd [2] | kon [2] | further results |
| --- | --- | --- | --- | --- | --- | --- |
| B1 |  |  |  |  |  | Kd (activin A): 0.019 nM; koff (activin A): 0.00023 s⁻¹; kon (activin A): 1.2e+07 M⁻¹ s⁻¹; Kd (activin B): 0.02 nM; koff (activin B): 0.0001 s⁻¹; kon (activin B): 5.1e+06 M⁻¹ s⁻¹; Kd (BMP6): 0.21 nM; koff (BMP6): 0.0068 s⁻¹; kon (BMP6): 3.2e+07 M⁻¹ s⁻¹ |
| B2 | 1.5 nM | 0.0022 s⁻¹ | 1.4e+06 M⁻¹ s⁻¹ |  |  |  |
| B3 | 0.078 nM | 0.0011 s⁻¹ | 1.4e+07 M⁻¹ s⁻¹ |  |  |  |
| B4 | 0.002 nM | 0.00011 s⁻¹ | 5e+07 M⁻¹ s⁻¹ | 0.028 nM | 2.6e+07 M⁻¹ s⁻¹ | koff [2]: 0.00072 s⁻¹ |
| B5 | 0.011 nM | 0.00026 s⁻¹ | 2.3e+07 M⁻¹ s⁻¹ | 0.086 nM | 2.9e+07 M⁻¹ s⁻¹ |  |
